Results from US20260167693A1 (ANGELES THERAPEUTICS, published 2026).

T1: CD19-ECD-GGSG-NLuc-AcV5 (human)
T1 construct: also called CD19-GGSG-NLuc-AcV5; Flag-CD19-GGSG-NLuc-AcV5
T1 chain: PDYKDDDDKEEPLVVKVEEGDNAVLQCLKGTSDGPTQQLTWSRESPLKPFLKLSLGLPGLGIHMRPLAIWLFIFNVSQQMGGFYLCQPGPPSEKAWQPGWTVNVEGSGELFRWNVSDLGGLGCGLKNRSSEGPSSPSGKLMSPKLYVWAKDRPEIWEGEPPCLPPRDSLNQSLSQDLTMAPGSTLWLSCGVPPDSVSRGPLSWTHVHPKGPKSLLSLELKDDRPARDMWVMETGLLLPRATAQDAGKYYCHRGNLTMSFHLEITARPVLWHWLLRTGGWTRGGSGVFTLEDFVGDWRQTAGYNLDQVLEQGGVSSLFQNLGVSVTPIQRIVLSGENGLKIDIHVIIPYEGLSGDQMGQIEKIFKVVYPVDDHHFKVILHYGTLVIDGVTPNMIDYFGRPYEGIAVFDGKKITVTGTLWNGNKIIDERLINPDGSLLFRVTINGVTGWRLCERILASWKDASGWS

T2: human CD19 (human, UniProt P15391 20-556)
T2 sequence (looked up): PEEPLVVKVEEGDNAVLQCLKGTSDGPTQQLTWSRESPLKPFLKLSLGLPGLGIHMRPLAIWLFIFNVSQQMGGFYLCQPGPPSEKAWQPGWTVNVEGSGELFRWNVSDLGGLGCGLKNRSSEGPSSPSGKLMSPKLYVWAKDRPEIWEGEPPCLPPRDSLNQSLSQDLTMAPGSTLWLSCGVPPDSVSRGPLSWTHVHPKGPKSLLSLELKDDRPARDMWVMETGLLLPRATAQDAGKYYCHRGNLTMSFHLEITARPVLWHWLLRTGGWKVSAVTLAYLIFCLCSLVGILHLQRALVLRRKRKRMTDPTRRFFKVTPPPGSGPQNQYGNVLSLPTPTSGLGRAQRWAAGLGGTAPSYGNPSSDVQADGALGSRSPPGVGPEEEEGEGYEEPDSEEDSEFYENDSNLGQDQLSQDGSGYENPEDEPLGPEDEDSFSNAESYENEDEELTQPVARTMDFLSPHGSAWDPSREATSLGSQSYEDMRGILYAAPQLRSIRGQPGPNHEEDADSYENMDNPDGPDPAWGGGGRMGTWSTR


Molecular target: T1, CD19-ECD-GGSG-NLuc-AcV5
Assay: NLuc binding assay, SIR on Jurkat-NFAT-GFP cells

Binder	CD19-GGSG-NLuc (RLU)
CD8SP-FMC63-vL-EAAAK-[hTCRb-KACIAH]-F-P2A-SP-FMC63-vH-EAAAK-v2-[hTCRa-CSDVP]-F-F2A-PAC (other, Polyprotein PRT 12435; also called 040617-C09) TCR beta: DIQMTQTTSSLSASLGDRVTISCRASQDISKYLNWYQQKPDGTVKLLIYHTSRLHSGVPSRFSGSGSGTDYSLTISNLEQEDIATYFCQQGNTLPYTFGGGTKLEITEAAAKEDLKNVFPPEVAVFEPSKAEIAHTQKATLVCLATGFYPDHVELSWWVNGKEVHSGVCTDPQPLKEQPALNDSRYCLSSRLRVSATFWQNPRNHFRCQVQFYGLSENDEWTQDRAKPVTQIVSAEAWGRADCGITSASYHQGVLSATILYEILLGKATLYAVLVSALVLMAMVKRKDSRG TCR alpha: EVKLQESGPGLVAPSQSLSVTCTVSGVSLPDYGVSWIRQPPRKGLEWLGVIWGSETTYYNSALKSRLTIIKDNSKSQVFLKMNSLQTDDTAIYYCAKHYYYGGSYAMDYWGQGTSVTVSSEAAAKIQNPDPAVYQLRDSKSSDKSVCLFTDFDSQTNVSQSKDSDVYITDKCVLDMRSMDFKSNSAVAWSNKSDFACANAFNNSIIPEDTFFPSSDVPCDVKLVEKSFETDTNLNFQNLSVIGFRILLLKVAGFNLLMTLRLWSS	68500 RLU

The binders below were run against T2, human CD19 (assay: cell-based or functional assay).

Binder	NFAT-GFP (%) after overnight co-culture with RAJI cells
CD8SP-CD19-hu-mROO5-vL-[hTCRb-KACIAH]-F-P2A-SP-CD19-hu-mROO5-vH-[hTCRa-CSDVP]-F-F2A-PAC (other) TCR beta: DIQMTQSPSSLSASVGDRVTITCKASDHINNWLAWYQQKPGQAPKLLIYGATTLETGVPSRFSGSGSGTDYTLTISSLQPEDFATYYCQQSWNTPWTFGQGTKLEIKREDLKNVFPPEVAVFEPSKAEIAHTQKATLVCLATGFYPDHVELSWWVNGKEVHSGVCTDPQPLKEQPALNDSRYCLSSRLRVSATFWQNPRNHFRCQVQFYGLSENDEWTQDRAKPVTQIVSAEAWGRADCGITSASYHQGVLSATILYEILLGKATLYAVLVSALVLMAMVKRKDSRG TCR alpha: QVQLQQPGAELVKPGASVKMSCKASGYAFSSYWINWMKQKPGQGLEWIGQIYPGDGDTNYNGKFKGRATLTADTSSSTAYMQLSSLTSEDSAVYFCARSITTVVGCAMDYWGQGTSVTVSSIQNPDPAVYQLRDSKSSDKSVCLFTDFDSQTNVSQSKDSDVYITDKCVLDMRSMDFKSNSAVAWSNKSDFACANAFNNSIIPEDTFFPSSDVPCDVKLVEKSFETDTNLNFQNLSVIGFRILLLKVAGFNLLMTLRLWSS	71.8%
CD8SP-CD19-hu-mROO5-vL-[hTCRa-CSDVP]-F-F2A-SP-CD19-hu-mROO5-vH-[hTCRb-KACIAH]-F-P2A-PAC (other) TCR alpha: DIQMTQSPSSLSASVGDRVTITCKASDHINNWLAWYQQKPGQAPKLLIYGATTLETGVPSRFSGSGSGTDYTLTISSLQPEDFATYYCQQSWNTPWTFGQGTKLEIKRIQNPDPAVYQLRDSKSSDKSVCLFTDFDSQTNVSQSKDSDVYITDKCVLDMRSMDFKSNSAVAWSNKSDFACANAFNNSIIPEDTFFPSSDVPCDVKLVEKSFETDTNLNFQNLSVIGFRILLLKVAGFNLLMTLRLWSS TCR beta: QVQLQQPGAELVKPGASVKMSCKASGYAFSSYWINWMKQKPGQGLEWIGQIYPGDGDTNYNGKFKGRATLTADTSSSTAYMQLSSLTSEDSAVYFCARSITTVVGCAMDYWGQGTSVTVSSEDLKNVFPPEVAVFEPSKAEIAHTQKATLVCLATGFYPDHVELSWWVNGKEVHSGVCTDPQPLKEQPALNDSRYCLSSRLRVSATFWQNPRNHFRCQVQFYGLSENDEWTQDRAKPVTQIVSAEAWGRADCGITSASYHQGVLSATILYEILLGKATLYAVLVSALVLMAMVKRKDSRG	52.4%
CD8SP-pre-TCRa-del48-F-F2A-CD8SP-CD19-hu-mRO05-1-scFv-V5-[hTCRb-S57C-opt]-F-P2A-Pac (other) TPFPSLAPPIMLLVDGKQQMVVVCLVLDVAPPGLDSPIWFSAGNGSALDAFTYGPSPATDGTWTNLAHLSLPSEELASWEPLVCHTGPGAEGHSRSTQPMHLSGEASTARTCPQEPLRGTPGGALWLGVLRLLLFKLLLFDLLLTCSCLCDPAGPLPSPATTTRLRALGSHRLHPATETGGREATSSPRPQPRDRRWGDTPPGRKPGSPV TCR beta: DIQMTQSPSSLSASVGDRVTITCKASDHINNWLAWYQQKPGQAPKLLIYGATTLETGVPSRFSGSGSGTDYTLTISSLQPEDFATYYCQQSWNTPWTFGQGTKLEIKRGGGGSGGGGSGGGGSQVQLQQPGAELVKPGASVKMSCKASGYAFSSYWINWMKQKPGQGLEWIGQIYPGDGDTNYNGKFKGRATLTADTSSSTAYMQLSSLTSEDSAVYFCARSITTVVGCAMDYWGQGTSVTVSSGKPIPNPLLGLDSTGSGEDLKNVFPPEVAVFEPSEAEISHTQKATLVCLATGFYPDHVELSWWVNGKEVHSGVCTDPQPLKEQPALNDSRYCLSSRLRVSATFWQNPRNHFRCQVQFYGLSENDEWTQDRAKPVTQIVSAEAWGRADCGFTSESYQQGVLSATILYEILLGKATLYAVLVSALVLMAMVKRKDSRG	6.77%
CD8SP-CD19-MOR0028-vL-Myc2-[hTCRb-KACIAH]-F-P2A-SP-CD19-MOR0028-vH-Myc4-[hTCRa-CSDVP]-F-F2A-PAC (other, also called 022817-L08) TCR beta: DIVMTQSPATLSLSPGERATLSCRSSKSLQNVNGNTYLYWFQQKPGQSPQLLIYRMSNLNSGVPDRFSGSGSGTEFTLTISSLEPEDFAVYYCMQHLEYPITFGAGTKLEIKEQKLISEEDLGSGEDLKNVFPPEVAVFEPSKAEIAHTQKATLVCLATGFYPDHVELSWWVNGKEVHSGVCTDPQPLKEQPALNDSRYCLSSRLRVSATFWQNPRNHFRCQVQFYGLSENDEWTQDRAKPVTQIVSAEAWGRADCGITSASYHQGVLSATILYEILLGKATLYAVLVSALVLMAMVKRKDSRG TCR alpha: EVQLVESGGGLVKPGGSLKLSCAASGYTFTSYVMHWVRQAPGKGLEWIGYINPYNDGTKYNEKFQGRVTISSDKSISTAYMELSSLRSEDTAMYYCARGTYYYGTRVFDYWGQGTLVTVSSEQKLISEEDLGSGIQNPDPAVYQLRDSKSSDKSVCLFTDFDSQTNVSQSKDSDVYITDKCVLDMRSMDFKSNSAVAWSNKSDFACANAFNNSIIPEDTFFPSSDVPCDVKLVEKSFETDTNLNFQNLSVIGFRILLLKVAGFNLLMTLRLWSS	31.6%
CD8SP-CD19Bu12-vL-V5-[hTCRb-WT]-F-P2A-CD19Bu12-vH-Myc-[hTCRa-WT]-F-F2A-PAC (other) TCR beta: EIVLTQSPATLSLSPGERATLSCSASSSVSYMHWYQQKPGQAPRLLIYDTSKLASGIPARFSGSGSGTDFTLTISSLEPEDVAVYYCFQGSVYPFTFGQGTKLEIKRGKPIPNPLLGLDSTGSGEDLKNVFPPEVAVFEPSEAEISHTQKATLVCLATGFYPDHVELSWWVNGKEVHSGVSTDPQPLKEQPALNDSRYCLSSRLRVSATFWQNPRNHFRCQVQFYGLSENDEWTQDRAKPVTQIVSAEAWGRADCGFTSESYQQGVLSATILYEILLGKATLYAVLVSALVLMAMVKRKDSRG TCR alpha: QVQLQESGPGLVKPSQTLSLTCTVSGGSISTSGMGVGWIRQHPGKGLEWIGHIWWDDDKRYNPALKSRVTISVDTSKNQFSLKLSSVTAADTAVYYCARMELWSYYFDYWGQGTLVTVSSEQKLISEEDGSGIQNPDPAVYQLRDSKSSDKSVCLFTDFDSQTNVSQSKDSDVYITDKTVLDMRSMDFKSNSAVAWSNKSDFACANAFNNSIIPEDTFFPSPESSCDVKLVEKSFETDTNLNFQNLSVIGFRILLLKVAGFNLLMTLRLWSS	4.49%
CD8SP-V5-[hTCRb-KACIAH]-F-P2A-CD8SP-CD19-hu-mROO5-vL-Gly-Ser-Linker-CD19-hu-mROO5-vH-Myc-[hTCRa-CSDVP]-F-F2A-PAC (other) TCR beta: GKPIPNPLLGLDSTGSGEDLKNVFPPEVAVFEPSKAEIAHTQKATLVCLATGFYPDHVELSWWVNGKEVHSGVCTDPQPLKEQPALNDSRYCLSSRLRVSATFWQNPRNHFRCQVQFYGLSENDEWTQDRAKPVTQIVSAEAWGRADCGITSASYHQGVLSATILYEILLGKATLYAVLVSALVLMAMVKRKDSRG TCR alpha: DIQMTQSPSSLSASVGDRVTITCKASDHINNWLAWYQQKPGQAPKLLIYGATTLETGVPSRFSGSGSGTDYTLTISSLQPEDFATYYCQQSWNTPWTFGQGTKLEIKRGGGGSGGGGSGGGGSQVQLQQPGAELVKPGASVKMSCKASGYAFSSYWINWMKQKPGQGLEWIGQIYPGDGDTNYNGKFKGRATLTADTSSSTAYMQLSSLTSEDSAVYFCARSITTVVGCAMDYWGQGTSVTVSSEQKLISEEDGSGIQNPDPAVYQLRDSKSSDKSVCLFTDFDSQTNVSQSKDSDVYITDKCVLDMRSMDFKSNSAVAWSNKSDFACANAFNNSIIPEDTFFPSSDVPCDVKLVEKSFETDTNLNFQNLSVIGFRILLLKVAGFNLLMTLRLWSS	9.55%
CD8SP-V5-[hTCRb-KACIAH]-F-P2A-CD8SP-hCD19-EUK5-13-vL-Gly-Ser-Linker-hCD19-EUK5-13-vH-Myc-[hTCRa-CSDVP]-F-F2A-PAC (other) TCR beta: GKPIPNPLLGLDSTGSGEDLKNVFPPEVAVFEPSKAEIAHTQKATLVCLATGFYPDHVELSWWVNGKEVHSGVCTDPQPLKEQPALNDSRYCLSSRLRVSATFWQNPRNHFRCQVQFYGLSENDEWTQDRAKPVTQIVSAEAWGRADCGITSASYHQGVLSATILYEILLGKATLYAVLVSALVLMAMVKRKDSRG TCR alpha: LPVLTQPPSVSVAPGKTARITCGGNNIGSKSVHWYQQKPGQAPVLVVYDDSDRPSGIPERFSGSNSGNTATLTISRVEAGDEADYYCQVWDSSSDYVVFGGGTKLTVLGGGGSGGGGSGGGGSEVQLVQSGAEVKKPGESLKISCKGSGYSFTSYWIGWVRQMPGKGLEWMGIIYPGDSDTRYSPSFQGQVTISADKSISTAYLQWSSLKASDTAMYYCARQVWGWQGGMYPRSNWWYNLDSWGQGTLVTVSSEQKLISEEDGSGIQNPDPAVYQLRDSKSSDKSVCLFTDFDSQTNVSQSKDSDVYITDKCVLDMRSMDFKSNSAVAWSNKSDFACANAFNNSIIPEDTFFPSSDVPCDVKLVEKSFETDTNLNFQNLSVIGFRILLLKVAGFNLLMTLRLWSS	6.67%
